Data: article doi:10.1101/2025.05.14.654016, “Phosphatase activity is dispensable for PRL-3-mediated oncogenesis and tumor progression” (bioRxiv, 2025)

Columns and labels:
Conditions in all cases: both partners purified
LSSmGFP-PRL-3.C104D [1] = molecular target: T1, LSSmGFP-PRL-3.C104D (human, UniProt O75365 1-173, C104D); experiment: co-IP; in vitro, purified proteins: HA-CBS or HA-CBS-mScarlet3 (2.5 μM) on HA-Tag magnetic beads; equimolar PRL-3 or LSSmGFP-PRL3.C104D with 1 mM TCEP, pre-incubated with 50 μM test compounds or DMSO; 25 mM Tris-HCl pH 7.4, 150 mM NaCl, 1% NP-40, 5% glycerol; room temperature
T1 construct: full-length PRL-3 with C104D, joined to LSSmGFP at its N-terminus by a glycine/serine linker; also called FRET donor; source: E. coli BL21 Star DE3, purified (Ni-NTA, TEV cleavage, second Ni-NTA, Superdex 200); not shown: LSSmGFP, N-terminal, kept
T1 sequence (O75365 whole entry C104D): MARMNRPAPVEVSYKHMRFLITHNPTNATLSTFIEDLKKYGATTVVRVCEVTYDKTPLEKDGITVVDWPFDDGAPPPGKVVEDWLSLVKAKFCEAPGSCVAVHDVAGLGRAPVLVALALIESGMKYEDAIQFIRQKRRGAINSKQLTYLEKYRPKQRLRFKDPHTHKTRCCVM

[2] = molecular target: T2, recombinant full-length human PRL-3 (human, UniProt O75365 1-173); experiment: as above
T2 construct: full-length human PRL-3 cloned into pSKB3 (modified pET-28b with a TEV site); also called purified PRL-3; non-fluorescent PRL-3; source: E. coli BL21 Star DE3, purified (Ni-NTA, TEV cleavage, second Ni-NTA, Superdex 200)
T2 sequence (O75365 whole entry): as the sequence (O75365 whole entry C104D) above, with D104C counted along it

LSSmGFP-PRL-3.C104D [3] = molecular target: T1, LSSmGFP-PRL-3.C104D; experiment: FRET or BRET; in vitro FRET of purified proteins, LSSmGFP-PRL-3 C104D with increasing concentrations of HA-CBS-mScarlet3; excitation 400 nm, emission 600 nm

B1: HA-CBS (CBS domain of CNNM3, residues Y301-D451, with an N-terminal HA tag) (domain or fragment, UniProt Q8NE01-1 301-451, looked up)
chain: YSDLSKGVLRCRTVEDVLTPLEDCFMLDASTVLDFGVLASIMQSGHTRIPVYEEERSNIVDMLYLKDLAFVDPEDCTPLSTITRFYNHPLHFVFNDTKLDAVLEEFKRGKSHLAIVQKVNNEGEGDPFYEVLGLVTLEDVIEEIIRSEILD
notes: also called purified CBS domain; unlabelled HA-CBS; source: E. coli BL21 Star DE3, purified (Ni-NTA, TEV cleavage, second Ni-NTA, Superdex 200); not shown: HA, N-terminal, kept
binding result (LSSmGFP-PRL-3.C104D [1]): binds
binding result [2]: binds

B2: HA-CBS-mScarlet3 (domain or fragment, UniProt Q8NE01-1 301-451, looked up)
chain: B1 chain
notes: CBS domain of CNNM3, residues Y301-D451, joined to mScarlet3 at its C-terminus by a glycine/serine linker; also called FRET acceptor; source: E. coli BL21 Star DE3, purified (Ni-NTA, TEV cleavage, second Ni-NTA, Superdex 200); not shown: HA, N-terminal, kept; mScarlet3, C-terminal, kept
binding result [2]: binds
binding result (LSSmGFP-PRL-3.C104D [3]): binds
